Assay results reported in patent US12698494.
Changes are numbered by the printed parent chain. Names and notes keep the numbering of the source.

Experiments:
[1] = biological target: T1, FRETS-VWF73 fluorogenic substrate, P04275
T1 chain: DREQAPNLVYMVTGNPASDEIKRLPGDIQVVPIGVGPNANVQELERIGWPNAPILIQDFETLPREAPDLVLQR

[2] = biological target: Von Willebrand Factor (VWF) multimers, P04275

B1: ADAMTS13 variant NGLY3 + R568A/Y665A + L591A/R636A/L637A/L668A (protein)
chain: AAGGILHLELLVAVGPDVFQAHQEDTERYVLTNLNIGAELLRDPSLGAQFRVHLVKMVILTEPEGAPNITANLTSSLLSVCGWSQTINPEDDTDPGHADLVLYITRFDLELPDGNRQVRGVTQLGGACSPTWSCLITEDTGFDLGVTIAHEIGHSFGLEHDGAPGSGCGPSGHVMASDGAAPRAGLAWSPCSRRQLLSLLSAGRARCVWDPPRPQPGSAGHPPDAQPGLYYSANEQCRVAFGPKAVACTFAREHLDMCQALSCHTDPLDQSSCSRLLVPLLDGTECGVEKWCSKGRCRSLVELTPIAAVHGRWSSWGPRSPCSRSCGGGVVTRRRQCNNPRPAFGGRACVGADLQAEMCNTQACEKTQLEFMSQQCARTDGQPLRSSPGGASFYHWGAAVPHSQGDALCRHMCRAIGESFIMKRGDSFLDGTRCMPSGPREDGTLSLCVSGSCRTFGCDGRMDSQQVWDRCQVCGGDNSTCSPRKGSFTAGRAAEYVTFLTVTPNLTSVYIANHRPAFTHLAVRIGGRYVVAGNMSISPNTTYPSLLEDGRVEYRVALTEDAAPRLEEIRIWGPLQEDADIQVYRRYGEEAGNATRPDITFTYFQPKPRQAWVWAAVRGPCSVSCGAGLRWVNYSCLDQARKELVETVQCQGSQQPPAWPEACVLEPCPPYWAVGDFGPCSASCGGGLRERPVRCVEAQGSLLKTLPPARCRAGAQQPAVALETCNPQPCPARWEVSEPSSCTSAGGAGLALENETCVPGADGLEAPVTEGPGSVDEKLPAPEPCVGMSCPPGWGHLDATSAGEKAPSPWGSIRTGAQAAHVWTPAAGSCSVSCGRGLMELRFLCMDSALRVPVQEELCGLASKPGSRREVCQAVPCPARWQYKLAACSVSCGRGVVRRILYCARAHGEDDGEEILLDTQCQGLPRPEPQEACSLEPCPPRWKVMSLGPCSASCGLGTARRSVACVQLDQGQDVEVDEAACAALVRPEASVPCLIADCTYRWHVGTWMECSVSCGDGIQRRRDTCLGPQAQAPVPADFCQHLPKPVTVRGCWAGPCVGQGTPSLVPHEEAAAPGRTTATPAGASLEWSQARGLLFSPAPQPRRLLPGPQENSVQSSACGRQHLEPTGTIDMRGPGQADCAVAIGRPLGEVVTLRVLESSLNCSAGDMLLLWGRLTWRKMCRKLLDMTFSSKTNTLVVRQRCGRPGGGVLLRYGSQLAPETFYRECDMQLFGPWGEIVSPSLSPATSNAGGCRLFINVAPHARIAIHALATNMGAGTEGANASYILIRDTHSLRTTAFHGQQVLYWESESSQAEMEFSEGFLKAQASLRGQYWTLQSWVPEMQDPQSWKGKEGT
- Activity level (% relative to wild type ADAMTS13) VWFFRETS73 (% relative to wild type ADAMTS13) [1]: 40

B2: Full-length ADAMTS13 variant NGLY5 (635DRLPR639 to 635DNLSR639) (protein)
chain: AAGGILHLELLVAVGPDVFQAHQEDTERYVLTNLNIGAELLRDPSLGAQFRVHLVKMVILTEPEGAPNITANLTSSLLSVCGWSQTINPEDDTDPGHADLVLYITRFDLELPDGNRQVRGVTQLGGACSPTWSCLITEDTGFDLGVTIAHEIGHSFGLEHDGAPGSGCGPSGHVMASDGAAPRAGLAWSPCSRRQLLSLLSAGRARCVWDPPRPQPGSAGHPPDAQPGLYYSANEQCRVAFGPKAVACTFAREHLDMCQALSCHTDPLDQSSCSRLLVPLLDGTECGVEKWCSKGRCRSLVELTPIAAVHGRWSSWGPRSPCSRSCGGGVVTRRRQCNNPRPAFGGRACVGADLQAEMCNTQACEKTQLEFMSQQCARTDGQPLRSSPGGASFYHWGAAVPHSQGDALCRHMCRAIGESFIMKRGDSFLDGTRCMPSGPREDGTLSLCVSGSCRTFGCDGRMDSQQVWDRCQVCGGDNSTCSPRKGSFTAGRAREYVTFLTVTPNLTSVYIANHRPLFTHLAVRIGGRYVVAGKMSISPNTTYPSLLEDGRVEYRVALTEDNLSRLEEIRIWGPLQEDADIQVYRRYGEEYGNLTRPDITFTYFQPKPRQAWVWAAVRGPCSVSCGAGLRWVNYSCLDQARKELVETVQCQGSQQPPAWPEACVLEPCPPYWAVGDFGPCSASCGGGLRERPVRCVEAQGSLLKTLPPARCRAGAQQPAVALETCNPQPCPARWEVSEPSSCTSAGGAGLALENETCVPGADGLEAPVTEGPGSVDEKLPAPEPCVGMSCPPGWGHLDATSAGEKAPSPWGSIRTGAQAAHVWTPAAGSCSVSCGRGLMELRFLCMDSALRVPVQEELCGLASKPGSRREVCQAVPCPARWQYKLAACSVSCGRGVVRRILYCARAHGEDDGEEILLDTQCQGLPRPEPQEACSLEPCPPRWKVMSLGPCSASCGLGTARRSVACVQLDQGQDVEVDEAACAALVRPEASVPCLIADCTYRWHVGTWMECSVSCGDGIQRRRDTCLGPQAQAPVPADFCQHLPKPVTVRGCWAGPCVGQGTPSLVPHEEAAAPGRTTATPAGASLEWSQARGLLFSPAPQPRRLLPGPQENSVQSSACGRQHLEPTGTIDMRGPGQADCAVAIGRPLGEVVTLRVLESSLNCSAGDMLLLWGRLTWRKMCRKLLDMTFSSKTNTLVVRQRCGRPGGGVLLRYGSQLAPETFYRECDMQLFGPWGEIVSPSLSPATSNAGGCRLFINVAPHARIAIHALATNMGAGTEGANASYILIRDTHSLRTTAFHGQQVLYWESESSQAEMEFSEGFLKAQASLRGQYWTLQSWVPEMQDPQSWKGKEGTHHHHHH
- FRETS-VWF73 activity relative to wild-type ADAMTS13 [1]: The activity of NGLY5 was slightly reduced when compared to wild type ADAMTS13
- VWF multimer assay (urea-denatured recombinant VWF) [2]: a reduced VWF processing activity was observed for NGLY2 and NGLY5

B3: Full-length wild-type ADAMTS13 (1427 amino acids) (protein)
chain: B2 chain with N562R, S564P
- Activity level (% relative to wild type ADAMTS13) VWFFRETS73 (% relative to wild type ADAMTS13) [1]: 100
- Ability to process VWF multimers under denaturing conditions [2]: ++++++
- vortex assay: processing of VWF multimers under turbulent flow [2]: resulted in loss of the high molecular weight multimers from the sample

B4: Full-length ADAMTS13 variant NGLY3 (607GKMSI611 to 607GNMSI611; K608N) (protein)
chain: B2 chain with K534N, N562R, S564P
- Activity level (% relative to wild type ADAMTS13) VWFFRETS73 (% relative to wild type ADAMTS13) [1]: 125
- FRETS-VWF73 activity relative to wild-type ADAMTS13 [1]: The ability of NGLY1, 2, 3 and 4 was similar or higher when compared to wild-type ADAMTS13
- Ability to process VWF multimers under denaturing conditions [2]: ++++++
- VWF multimer assay (urea-denatured recombinant VWF) [2]: The VWF processing activity of NGLY3 and NGLY4 was similar to that of the wild-type ADAMTS13
- vortex assay: processing of VWF multimers under shear stress [2]: Under these conditions NGLY3 was fully active

B5: Full-length ADAMTS13 variant NGLY1 (567AREYV571 to 567ANETV571) (protein)
chain: B2 chain with R494N, Y496T, N562R, S564P
- FRETS-VWF73 activity relative to wild-type ADAMTS13 [1]: The ability of NGLY1, 2, 3 and 4 was similar or higher when compared to wild-type ADAMTS13

B6: Full-length ADAMTS13 variant NGLY4 (608KMSIS612 to 608KNSTS612) (protein)
chain: B2 chain with M535N, I537T, N562R, S564P
- FRETS-VWF73 activity relative to wild-type ADAMTS13 [1]: The ability of NGLY1, 2, 3 and 4 was similar or higher when compared to wild-type ADAMTS13
- VWF multimer assay (urea-denatured recombinant VWF) [2]: The VWF processing activity of NGLY3 and NGLY4 was similar to that of the wild-type ADAMTS13

B7: Full-length ADAMTS13 variant NGLY2 (590PLFTH594 to 590PNFTH594) (protein)
chain: B2 chain with L517N, N562R, S564P
- FRETS-VWF73 activity relative to wild-type ADAMTS13 [1]: The ability of NGLY1, 2, 3 and 4 was similar or higher when compared to wild-type ADAMTS13
- VWF multimer assay (urea-denatured recombinant VWF) [2]: a reduced VWF processing activity was observed for NGLY2 and NGLY5
